Experimental data reported in US20110262477A1 (priority 2008, published 2011).

Test system: Nc1ncnc2c1ncn2[C@@H]1O[C@H](COP(=O)(O)O)[C@@H](O)[C@H]1O
Assay: purified protein, by the assay type
Conditions: pH 7.5; 37.0 °C

**Q.** For “Bacillus anthracis BasA (AdsA homolog, NCBI locus tag BAS4031), tagged, affinity purified from E. coli, SEQ ID NO:41 (Bacillus anthracis)”, which Km is on record?
**A.** 2.01 nM
